The target in experiment [1] is T1, full-length human C1s (produced in house) (human, UniProt P09871 16-688).
T1 construct: Called full-length; Partly auto-cleaved at R422-I423 on blots; also called HuC1s; Hu C1s
T1 sequence: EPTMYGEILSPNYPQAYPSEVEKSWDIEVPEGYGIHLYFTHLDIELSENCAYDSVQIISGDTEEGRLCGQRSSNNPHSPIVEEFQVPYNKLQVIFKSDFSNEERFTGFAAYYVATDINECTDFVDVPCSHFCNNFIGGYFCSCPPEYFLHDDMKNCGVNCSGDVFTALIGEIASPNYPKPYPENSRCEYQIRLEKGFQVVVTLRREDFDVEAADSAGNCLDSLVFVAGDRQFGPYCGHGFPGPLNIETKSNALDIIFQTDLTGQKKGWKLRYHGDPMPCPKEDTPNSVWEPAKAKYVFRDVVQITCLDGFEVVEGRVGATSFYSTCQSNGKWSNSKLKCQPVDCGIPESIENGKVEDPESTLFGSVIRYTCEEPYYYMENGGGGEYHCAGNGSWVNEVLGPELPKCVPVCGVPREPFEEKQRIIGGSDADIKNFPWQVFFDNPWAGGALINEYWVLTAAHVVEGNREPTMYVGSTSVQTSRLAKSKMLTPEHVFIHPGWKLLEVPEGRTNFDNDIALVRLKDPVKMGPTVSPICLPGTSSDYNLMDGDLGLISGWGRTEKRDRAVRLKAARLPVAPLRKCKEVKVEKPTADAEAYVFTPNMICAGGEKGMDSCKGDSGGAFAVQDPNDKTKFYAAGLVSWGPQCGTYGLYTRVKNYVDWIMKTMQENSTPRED
Description: BLI (Octet RED96e), antibody on AHC biosensor; C1s Species: Human; R^2 0.9992. From the text:
(§1) At last, analyte was dissociated in 1×KB for 360 sec. Data analysis was done using OCTET® Data Analysis HT Software (Sartorius AG).

The target in experiment [2] is T2, active human C1s (CompTech A104 C1s Enzyme) (human, UniProt P09871 16-688).
T2 construct: also called human active C1s; active C1s protein
T2 sequence (looked up): T1 sequence
Description: BLI (Octet RED96e), antibody on AHC biosensor; HuC1s Form: Active; R^2 0.9990. On the procedure:
Bio-Layer Interferometry technology was used for anti-C1s antibody affinity measurement and binding kinetics determinations with OCTET® RED96e system (Sartorius AG). Pre-hydrated Anti-Human IgG Fc Capture (AHC) biosensors were first equilibrated in 1×KB (Kinetic Buffer, 1×PBS pH 7.4+0.02% Tween-20+0.1% BSA) for 120 sec for the first baseline, followed by loading with […] anti-C1s antibody (2-7, FIG. 3A; 2-8, FIG. 3B; hz2-7(H1L2), FIG. 3C; hz2-8(H1L2 G80A/T82A, FIG. 3D) onto AHC biosensors for 240 sec. Then, the second baseline signal was established for 120 sec before association with various concentrations of active human C1s (CompTech A104) for 240-360 sec. At last, analyte was dissociated in 1×KB for 360 sec. Anti-C1s antibodies 2-7 and 2-8 were also analyzed against human C1s proenzyme (CompTech A103) (data not shown). Data analysis was carried out using OCTET® Data Analysis HT Software (Sartorius AG). KD, kₒₙ, koff and R² values were calculated for each antibody and target combination, as summarized in FIG. 3E showing high affinity binding with KD values in the low nanomolar to picomolar range.

Experiment [3] concerns the target T3, cynomolgus monkey C1s (produced in house) (cynomolgus monkey, UniProt P09871 16-685 (human entry), limits assumed).
T3 construct: also called CyC1s
T3 chain: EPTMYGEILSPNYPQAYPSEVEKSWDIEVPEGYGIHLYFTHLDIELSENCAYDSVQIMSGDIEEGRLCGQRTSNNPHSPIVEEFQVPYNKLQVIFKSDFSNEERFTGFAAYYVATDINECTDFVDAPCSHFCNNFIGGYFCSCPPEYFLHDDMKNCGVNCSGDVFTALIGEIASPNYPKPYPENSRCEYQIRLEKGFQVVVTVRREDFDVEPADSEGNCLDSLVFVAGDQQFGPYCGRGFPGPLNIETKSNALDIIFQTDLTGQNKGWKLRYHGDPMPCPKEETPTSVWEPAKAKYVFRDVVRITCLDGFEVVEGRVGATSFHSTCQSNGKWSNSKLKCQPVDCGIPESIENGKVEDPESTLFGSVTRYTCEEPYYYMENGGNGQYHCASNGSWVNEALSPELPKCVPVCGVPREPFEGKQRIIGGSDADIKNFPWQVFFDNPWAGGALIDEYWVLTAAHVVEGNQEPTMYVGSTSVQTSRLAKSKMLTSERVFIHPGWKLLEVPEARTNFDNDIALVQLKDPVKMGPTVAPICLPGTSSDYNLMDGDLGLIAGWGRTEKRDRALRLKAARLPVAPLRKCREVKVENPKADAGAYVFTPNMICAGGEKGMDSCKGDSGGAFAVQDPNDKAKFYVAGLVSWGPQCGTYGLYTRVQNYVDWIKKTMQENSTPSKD
The experiment in a line: BLI (Octet RED96e), antibody on AHC biosensor; C1s Species: Cyno Monkey; R^2 0.9997.
Excerpt: as §1
(In general: BLI is a label-free optical method that tracks binding on a fibre tip over time.)

In experiment [4] the target is T1, full-length human C1s (produced in …). The experiment in a line: BLI (Octet RED96e), antibody on AHC biosensor; C1s Species: Human; R^2 0.9997.
Excerpt: as §1

The record followed here is patent publication US20230051715A1 (MABWELL THERAPEUTICS, published 2023).

B1: Anti-C1s antibody 2-8 (antibody, V domains shown)
VH: EVQLQQSGAELVRPGALVKLSCKASGFNIKEYYMHWVKQRPEQGLEWIGWIDPENGDTIYDPKFQGKASITADTSSNTAYLQLSSLTSEDTAVYYCARSRLFFAYWGQGTLVTVSA
VL: DIVMTQSHKFMSTSVGDRVSFTCKASQDVRTAVDWYQQKPGQSPKLLIYSASYRYTGVPDRFTGTGSGTDFTFTISSVQAEDLAVYFCQQQYTTPYTFGGGTKLEIKT
notes: the HC/LC entries may hold it too; also called clone 2-8
For the molecule B1, in experiment [1], the equilibrium dissociation constant (Kd) – broadly, the constant that tells how readily two partners part at equilibrium – was 32 pM; the koff (commonly the first-order rate constant of dissociation) amounted to 0.00012 s⁻¹; the kon (usually the second-order rate constant of association) amounted to 3.8e+06 M⁻¹ s⁻¹. Besides, in experiment [2], the Kd turned out to be 490 pM, the koff was determined as 0.00012 s⁻¹ and the kon amounted to 250000 M⁻¹ s⁻¹.

B2: Anti-C1s antibody hz2-7(H1L2) (antibody, V domains shown)
VH: EVQLLESGGGLVQPGGSLRLSCAASGFTFSNYFMNWVRQAPGKGLEWVSEIRLKFTNYATHYADSVKGRFTISRDDSKSTLYLQMNSLRAEDTAVYYCTRDYGSRNGYFDYWGQGTLVTVSS
VL: DIVMTQTPLSLPVTPGEPASISCRSSKSLLHSNGNTFLYWFLQKPGQSPQLLIYRMSNLASGVPDRFSGSGSGTDFTLKISRVEAEDVGVYYCMQHLEYPYTFGGGTKLEIKR
notes: Humanized, human IgG1 / kappa; also called hz2-7(1L2)
Consider B2, for which, in experiment [3], the Kd came out at 940 pM, the koff is 0.00023 s⁻¹ and the kon is 250000 M⁻¹ s⁻¹.

B3: Anti-C1s antibody hz2-8 (H1L2 G80A/T82A) (antibody, V domains shown)
VH: QVQLVQSGAEVKKPGASVKVSCKASGFNIKEYYMHWVRQAPEQGLEWMGWIDPENADAIYAQKFQGRVTITADTSTNTAYMELSSLRSEDTAVYYCARSRLFFAYWGQGTLVTVSS
VL: DIQMTQSPKSLSASVGDRVTITCRASQDVRTALDWYQQKPGQSPKLLIYSASYRYSGVPSRFSGSGSGTDFTLTISSLQPEDFATYYCQQQYTTPYTFGQGTKLEIKR
notes: Humanized variant with G80A and T82A in HC CDR2 (already in the entry), human IgG1 / kappa
Consider B3, for which, in experiment [4], the Kd amounted to 700 pM, the koff turned out to be 0.0003 s⁻¹ and the kon was found to be 430000 M⁻¹ s⁻¹.
